# In the supplement of paper PMC9170038:
# Tested on: MS2 coat protein
# Assay: apparent KD of MS2 coat protein; designed switch direction (-1 OFF switch, 1 ON switch): 1; higher = weaker reporter binding
# Outline: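 The reported apparent KD is a per-design median over clusters, from curve fits of normalised cluster fluorescence. Protein titrations used SNAP-549-labelled MS2 coat protein, doubled from 0.7 or 1.5 nM to 3 µM, in Tris-HCl pH 7.5 buffer with KCl, MgCl2, BSA, DTT, tRNA and Tween-20, with no input, 200 uM small-molecule ligand, or an oligonucleotide input. The RNA switches were transcribed on Illumina chips by stalled E. coli RNA polymerase.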
# [1] = input ligand: microRNA oligo, concentration not stated
# [2] = Eterna round: R95, input ligand: FMN 200 uM
# [3] = Eterna round: R95, input ligand: microRNA oligo, concentration not stated
# [4] = Eterna round: R95, input ligand: none
Sequence,apparent KD of MS2 coat protein (input ligand: FMN 200 uM) [µM],apparent KD of MS2 coat protein [1] [µM],apparent KD of MS2 coat protein (input ligand: none) [µM],apparent KD of MS2 coat protein [2] [µM],apparent KD of MS2 coat protein [3] [µM],apparent KD of MS2 coat protein [4] [µM]
"GUGAAGAAUUAAGGAUAUCGAGUCAAGAUGUUAAACAUGAGGAUCACCCAUGUGGGUUGCGGUAUCGAGAAGGUAAAUUACGGG [salish99_SSNG2_r04_503] (Eterna round: R96, puzzle: Same State NG 2)",0.0346,0.0276,0.0332,,,
GUGCUACAUGAGGAUCACCCAUGUACAAAUGUACGAGGAUAUGCAUGGGCUAAUGCUGGUGCAGAAGGCGUAGCGC [Pin2Pin #7] (puzzle: Same State 1),,,,0.018,0.0339,0.0415
"GUGGCGGGUUGAGGAUAUUGGUUGCAUAUGUUUAACAUGAGGAUCACCCAUGUGGGUUGCGGUUUCGAGAAGGUAGGUUGCUGG [salish99_SSNG2_r04_044] (Eterna round: R96, puzzle: Same State NG 2)",0.155,0.0953,0.14,,,
"GUGGUCAGACAUGAGGAUCACCCAUGUGGAAUAAAUAACACACAGGAUAUCCAAUAUAAAAUAUAGGAGAAGGGUGGAUUGGUG (Eterna round: R96, puzzle: Same State NG 3)",,0.176,,,,
"GUGGUCAGACAUGAGGAUCACCCAUGUGGAAUAAAUAACAGACAGGAUAUGUAAUAUAGGAUAUAACAGAAGGGUCGAUUGGUG (Eterna round: R96, puzzle: Same State NG 3)",,0.0644,,,,
"GUGGUCAGACAUGAGGAUCACCCAUGUGGAAUAAAUAACAGACAGGAUAUUAAAUAUAGGAUAUAUAAGAAGGGUCGAUUGGUG (Eterna round: R96, puzzle: Same State NG 3)",,0.0785,,,,
"GUGGUCAGACAUGAGGAUCACCCAUGUGGAAUAAAUAACGGUGAGGAUAUUGAAUAUAGGAUAUACGAGAAGGCAUGAUUGGUG (Eterna round: R96, puzzle: Same State NG 3)",0.208,0.114,0.123,,,
"GUGGUCAGACAUGAGGAUCACCCAUGUGGAAUAAAUAAGGGACAGGAUAUCCAAUAUAGGAUAUAGGAGAAGGGUUGGUUGGUG (Eterna round: R96, puzzle: Same State NG 3)",0.0789,0.0645,0.0739,,,
"GUGGUCAGACAUGAGGAUCACCCAUGUGGAAUAAAUAAGGGAGAGGAUAUAUAAUAUAGGAUAUAAUAGAAGGCUCGGUUGGUG (Eterna round: R96, puzzle: Same State NG 3)",,0.0895,,,,
"GUGGUCAGACAUGAGGAUCACCCAUGUGGAAUAAAUAAGGUCAAGGAUAUUGAAUAUAGGAUAUACAAGAAGGUGAGGUUGGUG (Eterna round: R96, puzzle: Same State NG 3)",0.14,0.0949,0.115,,,
"GUGGUGAAUUAAGGAUAUCGAGUCUAGAUGUUAAACAUGAGGAUCACCCAUGUGGGUUGCGGUGUCGAGAAGGUGAUUUACGGG [salish99_SSNG2_r04_509] (Eterna round: R96, puzzle: Same State NG 2)",0.0822,0.0796,0.104,,,
GUUAAACAUGAGGAUCACCCAUGUAAUAUAAUGGGAGGAUAUCUGAAUUAAUUAAAUUAAGGAGAAGGCCUAAUGG [Mat - Same State 1 - Mod of Eli - D51] (puzzle: Same State 1),,,,0.0833,0.481,0.608
"GUUACAUGAGGAUCACCCAUGUAUGUGUGGGAGUAAGUGACUUAGGAUAUCUAAUAUUUAAAUUAAGAGAAGGAAGAUUGUUGU [JMF's solution 5] (Eterna round: R96, puzzle: Same State NG 3)",0.266,0.131,0.202,,,
"GUUACAUGAGGAUCACCCAUGUAUGUGUGGGAGUAAGUGUCUUAGGAUAUCUAUCAUUUAAGUUAAGAGAAGGAAGAUUGUUGU [JMF's solution 95] (Eterna round: R96, puzzle: Same State NG 3)",0.135,0.0804,0.108,,,
"GUUACAUGAGGAUCACCCAUGUAUGUGUGGGAGUAAGUGUCUUAGGAUAUCUAUCAUUUAAUUGAAGAGAAGGAAGAUUGUUGU [JMF's solution 99] (Eterna round: R96, puzzle: Same State NG 3)",0.14,0.0712,0.113,,,
"GUUAGGAAUCUAGCACACAUGAGGAUCACCCAUGUUAGUGGGAAGGAUAUGGUACAGAAACUGUACCAGAAGGUCUUAUUGUUU [Omei SS(NG) 3 AV14] (Eterna round: R96, puzzle: Same State NG 3)",0.0938,0.0676,0.142,,,
GUUUGACAUGAGGAUCACCCAUGUCAUACGGACACAGGAUAUCGUGGCCUGAAGCCGUCAUGAGAAGGGUGACCAA [Ceaza] (puzzle: Same State 1),,,,0.0338,0.0143,0.0125
"UAAAUACAUGAGGAUCACCCAUGUCAAAAGACAUGAGGAUAUGUACAGUCUUCGGUCUGUACAGAAGGCAUGAAUA [salish99_ss1_r3_097] (Eterna round: R96, puzzle: Same State 1)",0.0521,0.37,0.461,,,
UAAAUACAUGAGGAUCACCCAUGUCAAAAGACAUGAGGAUAUGUACAGUCUUCGGUCUGUACAGAAGGCAUGAAUA [salish99_ss1_r3_097] (puzzle: Same State 1),,,,,0.434,
"UACGCGAGAGGAGGAUAUGCAGAGGAUCACCCUGUAGAAGGCCUCAUAAGGAGGAUAUGCAGAGGAUCACCCUGUAGAAGGCCU [pwkr ssNG DX.22] (Eterna round: R96, puzzle: Same State NG 1)",0.345,0.0679,0.129,,,
"UACUGAGUCGUAGGAUAUGUAGGAUAUGGCGAGAGCUAAGCUUGGAAGUCACUUCUGCCAGAAGGACAGAAGGACGACUCUCUC [pwkr ssNG2 2FMN + F9.14] (Eterna round: R96, puzzle: Same State NG 2)",0.705,0.237,0.0555,,,
"UACUUGGUGGUAGGAUAUGUAGGAUAUGGCGAGAGCUAAGCUUGGAAGUCACUUCAGCCAGAAGGACAGAAGGACCAGUAUCUC [pwkr ssNG2 2FMN + F9.11] (Eterna round: R96, puzzle: Same State NG 2)",1.45,0.0115,0.0816,,,
UAGAAACAUGAGGAUCACCCAUGUGGGUUAAACACAGGAUAUCACACCAAACGAAAGGCGUGAGAAGGGUGACCGU [Xeonreais] (puzzle: Same State 1),,,,0.062,0.0412,0.0391
"UAGAUUCACGUAGGAUAUCGACCUACAUGAGGAUCACCCAUGUUUUUGAAUAGAUUUUUUAGUUACGAGAAGGACGUUAUGUAU [JR_SSNG2_Sub063] (Eterna round: R96, puzzle: Same State NG 2)",0.096,0.21,0.473,,,
"UAUGAAUUGCAAGGAUAUUGAUAACAUGAGGAUCACCCAUGUAAUUGUUCGAGUUAGAUUAGUUACAAGAAGGUGCUAUUGUUU [JR_SSNG2_Sub038] (Eterna round: R96, puzzle: Same State NG 2)",0.35,0.459,0.337,,,
"UAUUUAAUCGUAGGAUAUAGAGUGAAAUUUGGACUAGAAGGACGUAACAUGAGGAUCACCCAUGUGGUAAGUGGGACACAGUGU [JR_SSNG1_Sub038] (Eterna round: R96, puzzle: Same State NG 1)",0.15,0.0668,0.0905,,,
UCAAGCGCACAUGAGGAUCACCCAUGUACCGAGAGUCGUCGUCGGAGAAUGAUGCAUGCUGCUGCUAUUCCACAUUA [Default title] (puzzle: Sensor for hsa-mir-208a version 2),,,,0.0895,0.0668,0.0853
UCUAGACAUGAGGAUCACCCAUGUCAAUAUGACACAGGAUAUCGGUACUCAUAGAGUACGCGAGAAGGGUGACUUC [Same State 1 - Mod of Vinnie Gere v.4] (puzzle: Same State 1),,,,0.137,0.0455,0.0526
UCUUGGUUUUUGCUCGUUUUUUGUGUUGAACAUGAGGAUCACCCAUGUAUUGUACGGUCCAAUUUAGUGGUAGUCCG [JMF 67] (puzzle: Sensor for hsa-mir-208a),,,,0.0384,0.0253,0.0387
